Source: the Human Domainome abundance scans (Beltran et al. 2025)
± gives the uncertainty stated by the source.

B1: REST corepressor 3, residues 87 to 134; numbered along this chain, Q9P2K3 (parent)
chain: DEWTVEDKVLFEQAFSFHGKSFHRIQQMLPDKTIASLVKYYYSWKKTR

Variants of: B1
Assay: abundance fitness (aPCA) (normalised: wild type 0, dead -1); higher = more abundant; growth selection in yeast, the domain comes from the species named
Settings: Homo sapiens

| Variant | abundance fitness |
| --- | --- |
| Y41H | -0.52 ± 0.39 |
| S16K | -0.22 ± 0.26 |
| S16G | -0.081 ± 0.1 |
| I25F | -0.838 ± 0.45 |
| K32L | -0.673 ± 0.071 |
| Y42Q | -0.117 ± 0.13 |
| L10K | 0.546 ± 0.15 |
| M28G | -0.806 ± 0.25 |
| Y40P | -0.324 ± 0.35 |
| K45C | -0.616 ± 0.32 |
| W3C | -0.776 ± 0.32 |
| Y41A | -0.817 ± 0.38 |
| S36L | -1.04 ± 0.39 |
| K32S | -0.972 ± 0.096 |
| T47A | -0.672 ± 0.15 |
| K32M | -0.799 ± 0.13 |
| F15P | -0.881 ± 0.26 |
| D31I | -0.733 ± 0.43 |
| Y41G | -0.836 ± 0.26 |
| V9F | -0.531 ± 0.38 |
| H23R | -0.407 ± 0.13 |
| E12S | -0.822 ± 0.33 |
| I25D | -0.531 ± 0.28 |
| I34N | -0.267 ± 0.34 |

| Variant | abundance fitness |
| --- | --- |
| K32I | -0.978 ± 0.13 |
| Y42S | 0.102 ± 0.075 |
| S36G | -0.167 ± 0.093 |
| Y41R | -0.654 ± 0.44 |
| S43D | 0.162 ± 0.28 |
| A35E | 0.308 ± 0.12 |
| H23Q | -0.258 ± 0.25 |
| I34D | -0.437 ± 0.4 |
| L29G | -0.794 ± 0.2 |
| F17C | -0.853 ± 0.45 |
| A14L | -0.392 ± 0.19 |
| D31V | -0.517 ± 0.14 |
| Q27S | -0.482 ± 0.16 |
| T33G | -0.265 ± 0.1 |
| I25L | -0.358 ± 0.15 |
| K39V | -0.741 ± 0.27 |
| W44K | -0.393 ± 0.3 |
| T47Q | -0.979 ± 0.16 |
| Y42D | 0.252 ± 0.11 |
| S43R | 0.021 ± 0.052 |
| E12V | -0.801 ± 0.22 |
| V5G | -0.658 ± 0.14 |
| K46G | -0.202 ± 0.069 |
| L10A | -0.317 ± 0.14 |

| Variant | abundance fitness |
| --- | --- |
| F22M | -0.55 ± 0.21 |
| S21H | -0.185 ± 0.27 |
| H18Q | -0.895 ± 0.45 |
| W44T | -0.394 ± 0.22 |
| S43T | -0.312 ± 0.14 |
| T47E | -0.493 ± 0.4 |
| S36Q | 0.116 ± 0.12 |
| K45Q | -0.102 ± 0.25 |
| F15K | -0.585 ± 0.32 |
| E12K | -0.643 ± 0.34 |
| F17S | 0.262 ± 0.12 |
| S21W | -0.107 ± 0.16 |
| K45V | -0.454 ± 0.22 |
| F17I | -0.055 ± 0.23 |
| F17R | 0.137 ± 0.083 |
| D7P | -0.411 ± 0.4 |
| F15C | 0.29 ± 0.27 |
| D7E | -0.617 ± 0.34 |
| S16A | -0.077 ± 0.12 |
| I34P | -1.08 ± 0.36 |
| L37V | -0.618 ± 0.23 |
| S16V | -0.393 ± 0.14 |
| K39M | -0.748 ± 0.2 |
| S36P | -0.852 ± 0.32 |

| Variant | abundance fitness |
| --- | --- |
| S36W | -0.825 ± 0.42 |
| D31R | -0.253 ± 0.13 |
| S16L | -0.257 ± 0.15 |
| L29A | -0.832 ± 0.27 |
| S36V | -0.761 ± 0.2 |
| F17Y | -0.592 ± 0.37 |
| W3V | -0.677 ± 0.23 |
| K46H | 0.242 ± 0.13 |
| W44A | -0.78 ± 0.21 |
| H23G | -0.642 ± 0.17 |
| W44R | -0.541 ± 0.16 |
| Q27K | -0.419 ± 0.29 |
| K45I | -0.424 ± 0.34 |
| K39H | 0.075 ± 0.45 |
| Q27G | -0.673 ± 0.2 |
| D31H | -0.295 ± 0.3 |
| W3L | -0.858 ± 0.4 |
| Y41V | -0.657 ± 0.46 |
| F17T | 0.36 ± 0.11 |
| M28H | -0.364 ± 0.44 |
| A35C | -0.401 ± 0.12 |
| E2L | -0.593 ± 0.3 |
| I34C | -0.869 ± 0.2 |
| A35N | -0.145 ± 0.15 |

| Variant | abundance fitness |
| --- | --- |
| D7W | -0.762 ± 0.36 |
| K32A | -0.854 ± 0.097 |
| E6D | -0.466 ± 0.16 |
| E2Q | -0.486 ± 0.47 |
| S21V | -0.323 ± 0.21 |
| A35P | -0.345 ± 0.17 |
| M28L | -0.558 ± 0.15 |
| Q26S | -0.79 ± 0.24 |
| A35F | -0.098 ± 0.069 |
| Q27V | 0.395 ± 0.082 |
| E12T | -0.252 ± 0.27 |
| Q13K | -0.458 ± 0.26 |
| S43N | -0.172 ± 0.31 |
| H23S | -0.092 ± 0.17 |
| Q27C | -0.752 ± 0.41 |
| A35I | -0.062 ± 0.046 |
| S16M | -0.167 ± 0.26 |
| I25E | -0.693 ± 0.35 |
| W3I | -0.465 ± 0.46 |
| H18N | -0.785 ± 0.31 |
| H23E | -0.07 ± 0.15 |
| K32F | -0.814 ± 0.11 |
| K46E | -0.575 ± 0.22 |
| K8G | -0.673 ± 0.12 |

| Variant | abundance fitness |
| --- | --- |
| Y42N | 0.216 ± 0.15 |
| E12Q | -0.528 ± 0.46 |
| Q13I | -0.56 ± 0.23 |
| F11G | -0.768 ± 0.23 |
| P30S | -0.851 ± 0.5 |
| L10I | -0.117 ± 0.39 |
| F11E | -0.769 ± 0.36 |
| Y42A | -0.234 ± 0.073 |
| T47P | -0.075 ± 0.16 |
| Q13S | -0.584 ± 0.21 |
| D31Y | -0.027 ± 0.3 |
| K8P | -0.763 ± 0.32 |
| Y42P | -0.821 ± 0.11 |
| L37R | -0.885 ± 0.22 |
| A35K | -0.124 ± 0.14 |
| Y42V | 0.02 ± 0.075 |
| Q13L | -0.679 ± 0.18 |
| D7G | -0.571 ± 0.15 |
| Y41E | -0.491 ± 0.41 |
| I34R | -0.374 ± 0.043 |
| F17L | -0.206 ± 0.12 |
| V9P | -0.828 ± 0.24 |
| F15R | -0.675 ± 0.2 |
| P30V | -0.726 ± 0.22 |

| Variant | abundance fitness |
| --- | --- |
| T33Y | -0.708 ± 0.38 |
| P30L | -0.928 ± 0.38 |
| Q26L | -0.648 ± 0.17 |
| K8V | -0.625 ± 0.21 |
| I34K | -0.67 ± 0.38 |
| S16P | -0.579 ± 0.39 |
| F15S | -0.632 ± 0.25 |
| F22S | -0.897 ± 0.33 |
| Y42G | -0.036 ± 0.052 |
| T33V | -0.776 ± 0.2 |
| G19V | -0.805 ± 0.43 |
| T33W | -0.693 ± 0.19 |
| Q26V | -0.692 ± 0.26 |
| D7T | -0.708 ± 0.43 |
| V38S | -0.215 ± 0.077 |
| K20A | -0.343 ± 0.28 |
| V38T | -0.266 ± 0.09 |
| I34L | -0.419 ± 0.13 |
| D31N | -0.337 ± 0.46 |
| V38K | 0.393 ± 0.08 |
| E6I | -0.58 ± 0.46 |
| S21C | 0.164 ± 0.15 |
| V38R | -0.116 ± 0.069 |
